According to PMC8458453, “Structural basis of human PDZD8–Rab7 interaction for the ER-late endosome tethering” (Scientific Reports, 2021):
Numbering of substitutions follows the chain as printed. Names may count otherwise.

B1: MBP-PDZD8 CC A1086R (domain or fragment, human, UniProt Q8NEN9 994-1123, looked up)
chain: GNSTGIKLVRKEGGLDDSVFIAVKEIGRDLYRGLPTEERIQKLEFMLDKLQNEIDQELEHNNSLVREEKETTDTRKKSLLSAALAKSGERLQRLTLLMIHYRAGIEDIETLESLSLDQHSKKISKYTDDT
notes: also called PDZD8 A1086R; source: purified recombinant protein; not shown: His tag, N-terminal, kept; MBP, N-terminal, kept
B2: MBP-PDZD8 CC I1092E (domain or fragment, human, UniProt Q8NEN9 994-1123, looked up)
chain: B1 chain with R93A, I99E
notes: also called PDZD8 I1092E; source: purified recombinant protein; not shown: His tag, N-terminal, kept; MBP, N-terminal, kept
B3: MBP-PDZD8 CC, residues 980–1123 (domain or fragment, human, UniProt Q8NEN9 980-1123, looked up)
chain: SDTEVCGPNSPSKRGNSTGIKLVRKEGGLDDSVFIAVKEIGRDLYRGLPTEERIQKLEFMLDKLQNEIDQELEHNNSLVREEKETTDTRKKSLLSAALAKSGERLQALTLLMIHYRAGIEDIETLESLSLDQHSKKISKYTDDT
notes: source: purified recombinant protein; not shown: His tag, N-terminal, kept; MBP, N-terminal, kept

Target: T1, human Rab7 Q67L (residues 2–195), GTP-loaded (human, UniProt P51149 2-195, Q67L)
T1 construct: Supplemented with 1 mM GTP; Mg2+ and GTP are seen in the structure; also called Rab7A; Rab7-GTP; source: E. coli BL21(DE3), purified (Ni-NTA, thrombin cleavage, SEC; same procedure as the PDZD8 CC)
Assay: ITC; 1 mM MBP-PDZD8 CC in the syringe injected (2 μl × 25) into 0.1 mM Rab7 in the cell; 20 °C; 20 mM Tris-HCl pH 7.5, 150 mM NaCl; Rab7 Q67L loaded with 1 mM GTP, Rab7 T22N with 1 mM GDP; two-site model for wild type, independent (single-site) model for mutants
Conditions: both partners purified

T1 sequence (P51149 2-195 Q67L): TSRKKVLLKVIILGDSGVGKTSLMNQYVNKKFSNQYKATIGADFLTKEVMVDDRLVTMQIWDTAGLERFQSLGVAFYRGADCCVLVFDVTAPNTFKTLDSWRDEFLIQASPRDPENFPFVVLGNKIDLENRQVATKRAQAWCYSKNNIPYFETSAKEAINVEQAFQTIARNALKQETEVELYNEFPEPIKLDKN

Binder | Kd | binding result
B1 | 0.66 µM | 
B2 | 9.2 µM | 
B3 |  | binds
